# Measurements: article PMC3814384, “YoeB–ribosome structure: a canonical RNase that requires the ribosome for its specific activity” (Nucleic Acids Research, 2013)
# B1: Escherichia coli YoeB (enzyme, UniProt P69348 1-84, looked up)
# chain: MKLIWSEESWDDYLYWQETDKRIVKKINELIKDTRRTPFEGKGKPEPLKHNLSGFWSRRITEEHRLVYAVTDDSLLIAACRYHY
# notes: In the crystal two copies (monomers A and B) sit on the ribosomal A site as a homodimer; also called YeoB; monomer A; source: E. coli BL21(DE3), co-expressed with His-tagged YefM
# Biological target: the molecule itself
# Test: crystal structure; T. thermophilus 70S ribosome 4.4 uM with mRNA MOO4b (2'-O-methylated A-site codon) and tRNAfMet, YoeB added to 44 uM, buffer G (5 mM HEPES pH 7.5, 50 mM KCl, 10 mM NH4Cl, 10 mM Mg-acetate, 6 mM 2-mercaptoethanol); pre-cleavage state, 3.35 A
protein,measurement,value
B1,stoichiometry N,2
